The source of these data is publication PMC8699310, “Development of a Low-Molecular-Weight Aβ42 Detection System Using a Enzyme-Linked Peptide Assay” (Biomolecules, 2021).

Ends that are not written are not given here.

The target of assay [1] is T1, Aβ42 (Homo sapiens, UniProt P05067).
T1 construct: purchased Abcam ab120301
Put plainly: Binding of synthetic biotinylated peptide to Aβ42 captured on antibody-coated plate (enzyme-linked peptide assay, OD450). The settings on record: biotin-conjugated peptide serially diluted, 1 h, PBST, Aβ42 captured by anti-Aβ42 antibody (protein G plate), streptavidin-HRP/TMB, Hill-slope fitting, triplicate, read-out: dissociation constant (KD). As to the method:
ABPP was conjugated with biotin as a signal reporter, with a purity greater than 95%, as assessed using high-performance liquid chromatography. The binding affinities of peptides were estimated for each Aβ42- and antibody-coated plate. The coating methods followed the protocol described above, except for the use of PBST instead of TBST. After coating the plate with Aβ42, serially diluted peptide was added to the plate for 1 h. After peptide incubation, all wells were washed four times with PBST. Next, the wells were incubated with 100 µL of streptavidin-HRP (1:4000 in PBST) for 1 h. After incubation, the solution in the wells was washed four times with PBST. TMB solution was added to each well for 15 min. Next, 100 µL of 1 M H2SO4 was added to the wells to stop the reaction, and the absorbance was measured at 450 nm (OD450) using a microplate reader. To determine the detection range, serially diluted Aβ42 was added to the antibody-coated plates. After washing, the plate was incubated for 1 h with 100 µL of 100 µM peptide. Streptavidin and TMB treatment steps were performed as described above. Based on the measurements, the limit of detection (LOD) for the diagnostic system was calculated according to the formula from the IUPAC: LOD = 3 × SD/slope. To verify the specificity of our diagnostic system, other amyloid proteins were added to the antibody-coated plates. […]

Assay [2] has as its target T1, Aβ42. Put plainly: Spiking and recovery test of Aβ42. The note with it: PBS, 100 μM peptide assay, triplicate. The procedure:
PBS and human serum were used as solutions for the spiking test. Each of the Aβ42 and Aβ40 stock solutions was diluted using PBS, and the mixture was diluted using human serum. The diluted samples were added to antibody-coated plates and incubated for 2 h. The binding conditions used for the antibody coating and the peptide, streptavidin, and TMB treatment steps are described above. To calculate the recovery ratio, we divided the signals of the mixtures by the signals of Aβ42.

T1 sequence (P05067 672-713 limits assumed): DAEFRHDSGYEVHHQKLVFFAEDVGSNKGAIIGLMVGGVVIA

Take SEPQNIWQYLRN [ABPP]: on Aβ42 [1], the Kd came to 17.5 ± 2.98 µM.
As to “Aβ42: Aβ42 (ab120301) purchased from Abcam; analyte spiked in recovery test”, the “Average Recovery” value is reported as 97.02% with Aβ42 [2] (Aβ40 + Aβ42 = 10 + 40 ng/mL, SD 12.46%, %RSD 12.84); 96.04% in the assay with Aβ42 [2] (Aβ40 + Aβ42 = 20 + 40 ng/mL, SD 5.81%, %RSD 6.053); 104.5% with Aβ42 [2] (Aβ40 + Aβ42 = 40 + 40 ng/mL, SD 10.51%, %RSD 10.15).

One may read the Kd as the constant that tells how readily two partners part at equilibrium.
